Reference: patent publication US8440804B2, “Polypeptides having modulatory effects on cells” (Ecole Normale Superieure de Lyon, priority 2006, dated 2013)

Key:
Hela cells = test: Colony formation assay (cell proliferation assay, crystal violet); assay type: cell-based; conditions: continuous expression 2 weeks, compared to AptaLib and human thioredoxin
Protocol: (§1) (B) Colony formation assays. Hela or MCF-7 cells were transfected with plasmids directing the stable expression of the Cdk inhibitor p21, a library of peptide aptamers from pBK1 (AptaLib), Human thioredoxin (HTRX), and peptide aptamers R7G44, R5G42, R5G52. The cells were cultured for two weeks and the colonies were stained with crystal violet.
(§2) The inventors wished to establish the antiproliferative activity of these peptide aptamers using alternative cellular models and a non-retroviral vector to express individually each aptamer. They cloned the aptamer coding genes into a vector bearing a hygromycin selection marker. They also subcloned the pBK1 library into this vector, to create “AptaLib”. They continuously expressed the aptamers, the empty thioredoxin scaffold or AptaLib in Hela and MCF-7 cells for 2 weeks and they stained the cells that grew. […] These aptamers may originate from the remaining background of slowly proliferating cells during the seventh screening iteration, independently of the expressed aptamers. […] This could be due to the fact that the CMTMR assay is more sensitive in detecting modest antiproliferative effects than the colony formation assay or that some peptide aptamers somehow enhance the CMTMR labeling of their host cells.
(§3) To stably express peptide aptamers in mammalian cells, the episomal eukaryotic expression vector pCEP4 that bears a CMV promoter and a hygromycin selection marker (InVitrogen) was used. Aptamer coding sequences were PCR amplified using the oligonucleotides
(§4) that contained a stop codon. The PCR products were digested with NheI and NotI and ligated into NheI/NotI-cut pCEP4 to create pEA-aptamer plasmids. 3×10^5 cells/well were plated in 6-well plates and transfected 24 h after using Jet PEI (Qbiogen), 3.7 μg pEA-aptamer plasmids and 0.3 μg pEGFP-C1 (Clontech) to monitor transfection. Hygromycin (InVitrogen) was added at 200 μg/ml two days later and the cells were cultured for 2 weeks, renewing the medium twice a week. The cells were then rinsed in PBS and were fixed and stained by incubating 30 min in crystal violet (0.05% crystal violet, 20% ethanol, 0.37% formaldehyde). Excess crystal violet was removed by washing with water. In Vitro Phosphatase Assay

MCF-7 cells = test: as above; assay type: cell-based; conditions: MCF-7, continuous expression 2 weeks, compared to AptaLib and human thioredoxin
Protocol: as §1, §2, §3, §4

CNA = test: Yeast two-hybrid assay; assay type: binding, human; conditions: mating assay, LexA-aptamer fusions
Excerpt: (§5) (A) Yeast two-hybrid mating assay. TB50α yeast were co-transformed with pSH18-34T (bearing a lacZ reporter gene) and plasmids directing the expression of LexA alone or in fusion with peptide aptamers R5G42, R7G44 or R5G52. MB210a yeast were transformed with the selected cDNA library plasmids directing the expression of CNAβ, CNAγ, and NS5ATP2 truncated proteins. To obtain negative controls, MB210a yeast were also transformed with the empty prey plasmid (pJG4-5) and with pJG4-5 directing the expression of Ras and FKBP12 prey proteins. To obtain a positive control, MB210a yeast were transformed with pJG4-5 directing the expression of RG22 peptide aptamer prey fusion protein that interacts with LexA in the context of most LexA fusion proteins.
(§6) The inventors set out to map the R5G42 binding site on CNA. The CNA interacting clones selected in the yeast two-hybrid experiments corresponded to the carboxy-terminal regions of the beta and gamma isoforms, encompassing the calmodulin-binding domain and the auto-inhibitory domain (see FIG. 3B). […] The LexA-R5G52 bait protein may thus not be properly expressed and/or folded in this yeast two-hybrid setting.
The inventors explored the ability of R5G42 mutants having a one amino acid change as compared to R5G42, to bind to CNA beta and gamma C-Terminal fragments (FIG. 3b) and to NS5A-TP2. To this end, they proceeded to yeast-two hybrid assays as in example 3. CNA beta and gamma C-Terminal fragments (FIG. 3b) and NS5A-TP2 were cloned in three different plasmids (pSH18-34, pJK103 and pRB18-40), which differed from each other in the level of sensitivity of their promoter to the bait/prey complex formation, pSH18-34 having the highest sensitivity and pRB18-40 having the lowest.
The 5′ end of RH6 (upper case) matches part of the HA epitope tag and the 5′ ends of RH4, RH3 and RH7 (upper case) match the 5′ extremity of the ADH terminator. The PCR reactions was performed using pCMV-SPORT6-CnAβ as a template. CnAβCter Δ1, Δ2, CaM were constructed by combining oligonucleotides RH6/RH4, RH6/RH3, RH6/RH7, respectively. […]

peptide aptamer RG22 = test: Yeast two-hybrid mating assay, positive control of interaction; assay type: binding; conditions: RG22 interacts with LexA in most LexA fusion proteins
Excerpt: as §5, §6
The 5′ end of RH6 (upper case) matches part of the HA epitope tag and the 5′ ends of RH4, RH3 and RH7 (upper case) match the 5′ extremity of the ADH terminator. The PCR reactions was performed using pCMV-SPORT6-CnAβ as a template. […]

[1] = tested on: CNA fragments (CNA constructs CNA1-CNA11); test: Further yeast two-hybrid binding assays (higher sensitivity); parameters: species or system human
Excerpt: FIG. 14. Specificity of aptamers according to the invention for CNA and NS5A-TP2 Interaction matrix between peptide aptamers R5G42, C2, C7, C8, N9, R5G44 and R5G52 with CNA constructs CNA1-CNA8 (A) CNA9-11 (B) and NS5A-TP2 (C). An interaction phenotype between CNA3/CNA 11, which both contain the Calmodulin binding domain (CaM) and the auto-inhibitory domain (Al) but not the CNB binding domain (CNB) and the aptamers R5G42, C2, C7, C8 and N9 is observed in a two-hybrid assay. R5G44 and R5G52 aptamers recognize neither the CNA fragments, nor NS5A-TP2. Only aptamers R5G42 and N9 recognize NS5A-TP2.
The inventors proceeded to further yeast two-hybrid binding assays between peptide aptamers R5G42 (SEQ ID 22), C2 (SEQ ID 23), C7 (SEQ ID 27), C8 (SEQ ID 28), N9 (SEQ ID 33), R5G44 and R5G52 with CNA constructs CNA1-CNA8 (FIG. 14A), CNA9-CNA11 (FIG. 14B) and NS5A-TP2 (SEQ ID 15) (FIG. 14C). The sensitivity of this yeast two-hybrid assay was higher than in the experiment reported above.

[2] = tested on: Bad phosphorylation (phosphatase activity of calcineurin in cells); test: Monitoring of Bad phosphorylation in HeLa cells (western blot); assay type: cell-based; conditions: transient expression in human cells
Protocol: (B) Monitoring of BAD phosphorylation in cultured cells. Hela-Tet cells were transfected with plasmids directing the transient expression of BAD, CNAβ, CNB and peptide aptamers R5G42, R5G52 or R7G44. Transfected cells were treated or not with 500 nM FK506. The expression level of BAD and the phosphorylation of serine 112 and 136 residues were monitored by western blot experiments using specific antibodies.
The inventors set out to confirm this finding in human cells. Bad is a key pro-apoptotic protein whose activity is tightly regulated by its phosphorylation status, itself controlled by the balanced activity of several protein kinases and calcineurin. Therefore, the phosphatase activity of calcineurin in cells can be monitored by examining Bad phosphorylation. HeLa cells were transfected with plasmids directing the expression of Bad, CNAβ, CNB and either R5G42, R5G52 or R7G44.
The peptide aptamer coding genes were cloned into pPEAt (a pCEP4-based vector that bears a tetracyclin-inducible promoter and a hygromycin resistance gene), as described above (“cell proliferation assay”).
4×10^5 Hela-tet cells/well were seeded in a 6-well plate 24 h before transfection. […] The lysates were centrifuged to remove cellular debris and the protein content was quantified using the microBCA protein assay kit (Pierce). […]

recognition of the CNA fragments [1]: recognized neither the CNA fragments
B1: R5G52: peptide aptamer: variable region IQSPPESPTG in human thioredoxin (SEQ ID 32) (protein)
chain: MVKQIESKTAFQEALDAAGDKLVVVDFSATWCGPIQSPPESPTGGPCKMIKPFFHSLSEKYSNVIFLEVDVDDCQDVASECEVKCMPTFQFFKKGQKVGEFSGANKEKLEATINELV
modifications: left off: large carriers
inhibition of cell proliferation (colony formation) (Hela cells): significantly inhibited the proliferation
inhibition of cell proliferation (colony formation) (MCF-7 cells): significantly inhibited the proliferation
yeast two-hybrid interaction phenotype with CNA (CNA): did not show an interaction phenotype
yeast two-hybrid interaction phenotype (peptide aptamer RG22): did not show an interaction phenotype
Bad phosphorylation levels [2]: does not affect Bad phosphorylation levels
